Source: article doi:10.1101/335232 (bioRxiv, 2018)

Target: the molecule itself
Experiment: SEC-MALS

B1: Human apolipoprotein-D (apoD) from breast cyst fluid (natural protein, UniProt P05090 21-189, looked up)
chain: QAFHLGKCPNPPVQENFDVNKYLGRWYEIEKIPTTFENGRCIQANYSLMENGKIKVLNQELRADGTVNQIEGEATPVNLTEPAKLEVKFSWFMPSAPYWILATDYENYALVYSCTCIIQLFHVDFAWILARNPNLPPETVDSLKNILTSNNIDVKKMTVTDQVNCPKLS
modifications: N-linked glycosylation at N45 and N78 (mature numbering)
  stoichiometry N: 4
